The results in this text go back to publication PMC12148185, “Combining CD3/GD2 bispecific T cell engager with human Vγ9Vδ2 T cells facilitates neuroblastoma cell targeting and killing in vitro” (PLOS One, 2025).

This assay has as its target T1, recombinant CD3 epsilon (Homo sapiens (species ; human …, UniProt P07766).
T1 construct: recombinant CD3 epsilon (Sigma-Aldrich); No catalogue number is printed; source: bought: Sigma-Aldrich
As to the kind of experiment: ELISA; indirect ELISA; 0.5 µg recombinant CD3 epsilon coated overnight at 4 °C; 500 µg/ml protein of total cell lysate, periplasmic or cytoplasmic fraction with the scFv, 37 °C 1 h; detected with HRP-conjugated anti-E tag, A405; signals of the negative protein and of BSA-coated wells subtracted. The note with it: one partner purified. For orientation: In an ELISA, binding on a coated surface is turned into a signal by an enzyme label.

T1 sequence (P07766 23-126): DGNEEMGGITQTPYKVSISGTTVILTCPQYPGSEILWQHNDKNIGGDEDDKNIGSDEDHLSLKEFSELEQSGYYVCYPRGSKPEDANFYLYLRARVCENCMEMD

B1: human scFv CD3 clone 18 (scFv, V domains shown)
VH: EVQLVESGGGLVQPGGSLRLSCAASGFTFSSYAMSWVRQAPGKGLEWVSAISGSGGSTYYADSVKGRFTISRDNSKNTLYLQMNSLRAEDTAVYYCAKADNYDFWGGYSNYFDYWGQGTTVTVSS
VL: EIVMTQSPATLSVSPGERATLSCTASQSVRNNLAWYQQKPGQPPRLLIYGASTRATGIPARFSGSRSGTEFTLTISSLQSEDFGVYYCQQYNNWPRTFGQGTKVEIK
notes: selected from a naive human scFv M13 phage library; About 28 kDa on Western blot; source: E. coli HB2151, IPTG-induced; total cell lysate, periplasmic fraction or cytoplasmic fraction
Regarding B1, the binding result is given as “binds”.
